Assay results from US11708423B2, “Chimeric engulfment receptor molecules and methods of use” (CERO THERAPEUTICS, INC., priority 2017, dated 2023).

Key:
[1] = tested on: SCC152 cells; test: Magnitude breadth of phagocytosis by CER-transduced CD4+ T cells; type: cell-based, human; settings: 8 hours co-culture with CD8/E7 TCR T cells and SCC152 cells
Method: Various CER-modified CD4+ T cells were also evaluated for breadth of response to determine whether a particular CER confers a broad phagocytic response of low magnitude (e.g., 10% engulfment in 90% of cells) or a less frequent but strong phagocytic response (e.g., 90% engulfment in 10% of cells) in the host cells. CD8+ T cells were transduced with HPV16 E7 specific TCR as described in Example 5. CD4+ T cells were transduced with lentiviral vectors comprising a CER21, CER27, CER104, CER116, or CER117 nucleic acid. Mock-transduced (vector alone) CD4+ T cell were used as control. CD4+/CER+ and CD8+/E7 TCR+ T cells were stained with CELLTRACE violet. […] HPV16 E7 TCR transduced CD8+ T cells and selected CER transduced CD4+ T cells were mixed at a 1:1 ratio and co-cultured with SCC152 cells at a 1:1 ratio for 8 hours. Phagocytosis of target SCC152 cells by CER-transduced CD4+ T cells was analyzed by fluorescence microscopy. […] The horizontal axis represents the % area of CER-transduced CD4+ T cells having engulfment or % area of […]. This measure was rarely above 40% across CER types tested. The vertical axis represents the proportion of CER-transduced CD4+ T cells that were phagocytic. For CER104, about 20% of CER104-transduced CD4+ T cells have more than 10% engulfment. For CER117-transduced CD4+ T cells, less than 10% have more than 10% engulfment.

[2] = tested on: CER-transduced CD4+ T cells; test: Mass cytometry (CyTOF) with viSNE marker analysis of CER-transduced CD4+ T cells; type: cell-based, human; settings: CD4+ T cells after co-culture with E7 TCR CD8+ T cells and SCC152 cells
Excerpt: CD4+ T cells were transduced with lentiviral vector comprising CER104, CER116, or CER117 nucleic acid. CER104 (SEQ ID NO:133) comprises a Tim4 binding domain, Tim4 transmembrane domain, and an engulfment signaling domain comprising a primary engulfment signaling domain comprising a TLR8 signaling domain and a secondary engulfment signaling domain comprising a DAP12 signaling domain. CER116 (SEQ ID NO:143) comprises a Tim4 binding domain, Tim4 transmembrane domain, and an engulfment signaling domain comprising a primary engulfment signaling domain comprising a TRAF6 signaling domain and a secondary engulfment signaling domain comprising a TLR8 signaling domain. CER117 (SEQ ID NO:144) comprises a Tim4 binding domain, Tim4 transmembrane domain, and an engulfment signaling domain comprising a primary engulfment signaling domain comprising a TLR8 signaling domain and a secondary engulfment signaling domain comprising a TRAF6 signaling domain. CER-transduced CD4+ T cells were co-cultured with E7 TCR-transduced CD8+ T cells and HPV+SCC152 target cells and interrogated by mass cytometry (CyTOF) with viSNE for visualization of high dimensional single cell data (FIGS. 82-84). Intact CER-transduced CD4+ T cells are shown in plots displaying tSNE1 (horizontal) and tSNE2 (vertical) axes. 27 intracellular markers were used for the viSNE analysis. Each dot represents a single cell. […] Red represents high expression and blue represents low expression for each marker. Populations of CD4^+ T cells were generated using a clustering algorithm from all 27 markers and overlaid onto the viSNE map. […] Populations of CD4^+ T cells were generated using a clustering algorithm from all 18 markers and overlaid onto the viSNE map (FIG. 83A). […] Color plots by 18 intracellular markers (CD28, CCR7, CD45RA, PD1, CD127, Perforin, CD49d, CD85j, CD38, CD27, Granzyme B, CD57, CD25, CD69, CD154, CD56, HLA-DR, and TCRγδ) show the phenotype across viSNE ‘islands’ (FIG. 83B). Red represents high expression and blue represents low expression for each marker. Highlighted region with arrow indicates cells expressing T cell activation marker CD69. Populations of CD4^+ T cells were generated using a clustering algorithm from 18 intracellular markers (CD28, CCR7, CD45RA, PD1, CD127, Perforin, CD49d, CD85j, CD38, CD27, Granzyme B, CD57, CD25, CD69, CD154, CD56, HLA-DR, and TCRγ6) and overlaid onto the viSNE map. […] Color plots by the 18 intracellular markers show the phenotype across viSNE ‘islands’ (FIG. 84B). Red represents high expression and blue represents low expression for each marker. Highlighted region with arrow indicates cells expressing the naïve T cell marker CD45RA.

[3] = tested on: ALK+A549 cells; test: Phagocytosis of ALK inhibitor treated A549 ALK+ cells by CER T cells (fluorescent microscopy); type: cell-based; settings: 12 hours, CD4 T cells
Excerpt: An ELM4-ALK translocation was introduced into A549 cells. […] CD4 T cells are modified to express CER104 or CER117 and labeled with CELLTRACE Violet. CER117 has a polypeptide sequence set forth in SEQ ID NO:144 and comprises a Tim4 binding domain, a Tim4 transmembrane domain, and an engulfment signaling domain comprising a primary engulfment signaling domain comprising a TLR8 signaling domain and a secondary engulfment signaling domain comprising a TRAF6 signaling domain. The ALK+A549 cells were then co-cultured with CER104- or CER117-expressing CD4+ T cells or Mock-transduced (vector only) T cells for 12 hours and images were obtained by fluorescent microscopy at 40× magnification (FIGS. 62A-E). White arrows indicate exemplary phagocytic events (pH rodo red cell targets within CELLTRACE Violet labeled CD4+ T cells).
CER123- and CER126-transduced CD4+ and CD8+ T cells were labeled with CELLTRACE Violet and co-cultured with the A549 ALK-positive cells. Co-cultured cells were imaged by fluorescent microscopy at 63× magnification after 12 hours (FIGS. 63A-F). White arrows indicate exemplary phagocytic events (pHrodo red targets within CELLTRACE Violet-labeled CD4 T cells).
Phagocytosis of Alectinib-treated ALK+A549 cells by CER-expressing T cells was also quantified. […] Bar graph in FIG. 64A represents quantification of percentage phagocytosis calculated as ((number of phagocytic target events)/(total number of effector cells))*100. Events were calculated from fluorescent 3×3 stitched images at 40×resolution after 12 hours of co-culture. Bar graph in FIG. 64B represents quantification of adjusted phagocytic index calculated as (median area ratio of target events in effector cells*phagocytosis). Events calculated from fluorescent 3×3 stitched images at 40×resolution after 12 hours of co-culture.
CER21−, CER27−, CER30−, CER108−, CER110−, CER112−, CER120−, CER123−, CER124−, CER126−, CER127−, or CER104-transduced CD4+ T cells were co-cultured with Alectinib-treated A549 cells at a 1:1 ratio for 12 hours. Phagocytic events were calculated from 3×3 stitched fluorescent microscopy images at 40X resolution. […] Images were obtained after 12 hours of co-culture. Yellow triangles indicate exemplary phagocytic events (pHrodo red targets within CELLTRACE violet labeled CD4+ T cells).
A time course study of phagocytic uptake of tumor cells by CER-transduced T cells was performed. CD4+ T cells were transduced with a lentiviral vector comprising CER122 nucleic acid. Mock-transduced (vector only) CD4+ T cells were used as control. CER122-transduced T cells were labeled with CELLTRACE violet and co-cultured with pHrodo red labeled A549 ALK+ lung adenocarcinoma cells. Fluorescent microscopy images were obtained at 4, 8, and 16 hours co-culture (FIG. 72C), and % phagocytosis (FIG. 72A) and phagocytic index (FIG. 72B) were calculated.

B1: CER117: Tim4 binding and transmembrane domains, TLR8 primary and TRAF6 secondary signaling domains; SEQ ID NO:144 (protein)
chain: MSKGLLLLWLVTELWWLYLTPAASEDTIIGFLGQPVTLPCHYLSWSQSRNSMCWGKGSCPNSKCNAELLRTDGTRIISRKSTKYTLLGKVQFGEVSLTISNTNRGDSGVYCCRIEVPGWFNDVKKNVRLELRRATTTKKPTTTTRPTTTPYVTTTTPELLPTTVMTTSVLPTTTPPQTLATTAFSTAVTTCPSTTPGSFSQETTKGSAFTTESETLPASNHSQRSMMTISTDIAVLRPTGSNPGILPSTSQLTTQKTTLTTSESLQKTTKSHQINSRQTILIIACCVGFVLMVLLFLAFLHHLFYWDVWFIYNVCLAKVKGYRSLSTSQTFYDAYISYDTKDASVTDWVINELRYHLEESRDKNVLLCLEERDWDPGLAIIDNLMQSINQSKKTVFVLTKKYAKSWNFKTAFYLALQRLMDENMDVIIFILLEPVLQHSQYLRLRQRICKSSILQWPDNPKAEGLFWQTLRNVVLTENDSRYNNMYVDSIKQYMSLLNCENSCGSSQSESDCCVAMASSCSAVTKDDSVGGTASTGNLSSSFMEEIQGYDVEFDPPLESKYECPICLMALREAVQTPCGHRFCKACIIKSIRDAGHKCPVDNEILLENQLFPDNFAKREILSLMVKCPNEGCLHKMELRHLEDHQAHCEFALMDCPQCQRPFQKFHINIHILKDCPRRQVSCDNCAASMAFEDKEIHDQNCPLANVICEYCNTILIREQMPNHYDLDCPTAPIPCTFSTFGCHEKMQRNHLARHLQENTQSHMRMLA
modifications: CER117 protein
proportion of CER-transduced CD4+ T cells that have more than 10% engulfment [1]: less than 10% | viSNE islands expressing intracellular marker IFNγ [2]: enrichment of islands expressing the intracellular marker IFNγ | phagocytosis of A549 cells ([3]; 1 μM Alectinib): phagocytosed A549 cells | phagocytosis of A549 cells ([3]; 1 μM Crizotinib): phagocytosed A549 cells
